For 1 substance, lowest concentration of RII and mean cluster area of RBCs under flow (1 dyn/cm^2), RII 1, 10 and 100 nM results are on record in article PMC6305201.

For assay [1], the target named is glycophorin A on red blood cells (human (endogenous in red blood cells)) (UniProt P02724).
For assay [2] the target is unchanged. The source holds these as a separate data set.

Take “recombinant soluble region II (RII) of EBA-175 (domain or fragment)”: the lowest concentration of RII at which RBC clustering was seen (confocal live imaging, picomolar and low nanomolar RII) in assay [1] came to 0.3 nM. The substance also showed a mean cluster area of RBCs under flow (1 dyn/cm^2), RII 1, 10 and 100 nM in assay [2] of 1140 µm^2.
